Measurements from article PMC5955624.

Key:
Test in all cases: two-hybrid
[1] = target: Tpz1 (fission yeast (Schizosaccharomyces pombe)) (UniProt O14246)
[2] = target: chimeric protein SUMO-Tpz1(243-420) (fission yeast (Schizosaccharomyces pombe)) (UniProt O14246)
[3] = target: SUMO (small ubiquitin-like modifier, encoded by pmt3) (fission yeast (Schizosaccharomyces pombe)) (UniProt O13351)
UniProt O13351, sequence (O13351 whole entry): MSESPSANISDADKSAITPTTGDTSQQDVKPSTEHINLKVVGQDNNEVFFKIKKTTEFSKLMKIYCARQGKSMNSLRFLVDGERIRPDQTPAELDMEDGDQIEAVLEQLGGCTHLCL

UniProt O14246, sequence (O14246 whole entry): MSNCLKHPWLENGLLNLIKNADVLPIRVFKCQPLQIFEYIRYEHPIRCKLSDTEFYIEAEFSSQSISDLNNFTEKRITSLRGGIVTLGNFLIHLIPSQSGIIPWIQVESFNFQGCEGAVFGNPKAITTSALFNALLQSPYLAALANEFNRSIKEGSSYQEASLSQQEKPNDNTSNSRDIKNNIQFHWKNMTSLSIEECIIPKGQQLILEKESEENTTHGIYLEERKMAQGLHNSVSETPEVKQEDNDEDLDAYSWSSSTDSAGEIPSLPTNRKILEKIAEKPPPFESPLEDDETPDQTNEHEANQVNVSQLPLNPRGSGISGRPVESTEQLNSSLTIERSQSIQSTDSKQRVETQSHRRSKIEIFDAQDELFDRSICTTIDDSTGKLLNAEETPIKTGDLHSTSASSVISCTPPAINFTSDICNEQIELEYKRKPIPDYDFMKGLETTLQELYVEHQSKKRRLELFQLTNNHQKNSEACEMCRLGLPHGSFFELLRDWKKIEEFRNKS

β-galactosidase activity (two-hybrid) (β-galactosidase U) [1]: 7
β-galactosidase activity (two-hybrid) (β-galactosidase U) [2]: 50
β-galactosidase activity (two-hybrid) (β-galactosidase U) [3]: 50
Substance: Ten1Stn1 fusion protein (Ten1, Gly15 linker, Stn1)
